Experimental data published in doi:10.1101/2025.06.28.662095, “Mechanistic insights into the allosteric regulation of cell wall hydrolase RipA in Mycobacterium tuberculosis” (bioRxiv, 2025).

Target: T1, MtSteBΔTM (M. tuberculosis SteB devoid of its TM domain, residues 38-314) (Mycobacterium tuberculosis, UniProt P9WJ83 38-314)
T1 construct: Homodimer in both crystal structures; also called Rv1698; MctB; not shown: 6xHis-SUMO, N-terminal, cleaved
Assay: BLI; biotinylated MtRipACC immobilised on streptavidin biosensors; 25°C; 25 mM HEPES pH 7.5, 150 mM NaCl, 5% glycerol, BSA 1 mg/mL, 0.05% Tween 20; steady-state signal versus concentration, one-site binding model; apparent Kd
Conditions: both partners purified

B1: MtRipACC (coiled-coil domain of M. tuberculosis RipA, residues 40-240) (domain or fragment)
chain: DPQTDTIAALIADVAKANQRLQDLSDEVQAEQESVNKAMVDVETARDNAAAAEDDLEVSQRAVKDANAAIAAAQHRFDTFAAATYMNGPSVSYLSASSPDEIIATVTAAKTLSASSQAVMANLQRARTERVNTESAARLAKQKADKAAADAKASQDAAVAALTETRRKFDEQREEVQRLAAERDAAQARLQAARLVAWSSE
modifications: biotinylated with EZ-Link NHS-PEG4-Biotin (20 molar excess) for the BLI assays
notes: also called RipA coiled-coil (CC) domain; MtRipA CC domain; not shown: 6xHis-SUMO, N-terminal, cleaved
B1 gave a Kd of 42.6 ± 4.4 µM.
